Experimental findings from doi:10.1101/2021.06.09.447721 are described below.

For the experiment, the target named is GST-NET-Ct^ΔMIM (human) (UniProt P23975). Description: pull-down.

In turn, “MAD2 (endogenous) (from UniProt Q13257 1-205) (natural protein)” showed a reduction of MAD2 binding against wild type GST-NET-Ct of 70%.
